For 3 molecules, % Inhibition, PlGF-1 Measured and RLU results are on record in patent US20100015637A1 (AbbVie / Abbott, published 2010).

The target in test [1] is human PlGF-1 comprising amino acids 1-137 produced in human embryonic kidney cells (human) (UniProt P49763). Kind of test: Format 1 …, capture 2-826-335, detection 1-255-713; sFlt-1 0 pmol/L (ratio 0).
Test [2] shares this target. Kind of test: Format 1 …, capture 2-826-335, detection 1-255-713; sFlt-1 613 pmol/L (ratio 20).
Test [3] has the same target. Kind of test: Format 3 Quantikine ELISA, capture MAb264, detection Pb264; sFlt-1 77 pmol/L (ratio 2.5). In general terms: ELISA stands for enzyme-linked immunosorbent assay.
The target is the same in test [4]. Kind of test: Format 3 Quantikine ELISA, capture MAb264, detection Pb264; sFlt-1 9200 pmol/L (ratio 300).
Test [5] shares this target. Put plainly: Format 2 …, capture MAb264, detection Pb264; sFlt-1 920 pmol/L (ratio 30).
Test [6] has the same target. Kind of test: Format 3 Quantikine ELISA, capture MAb264, detection Pb264; sFlt-1 0 pmol/L (ratio 0).
The target of test [7] is recombinant human PlGF-1 (comprising amino acids 1-131) expressed in E. coli (R&D Systems) (human) (UniProt P49763). Put plainly: … sandwich, capture MAb826, detection pAb264; antigen 250 pg/mL.
In test [8] the target is T1, human PlGF-1 fragment (comprising amino acids 17-131) produced in human embryonic kidney cells (human, UniProt P49763 35-221).
T1 sequence: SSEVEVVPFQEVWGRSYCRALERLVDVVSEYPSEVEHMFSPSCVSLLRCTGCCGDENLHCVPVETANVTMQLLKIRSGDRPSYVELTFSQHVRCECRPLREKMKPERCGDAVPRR
Kind of test: … sandwich, capture MAb826, detection pAb264; antigen 1500 pg/mL.

Test [9] has as its target T2, human PlGF-1 comprising amino acids 1-137 produced in human embryonic kidney cells (human, UniProt P49763 19-221).
T2 construct: Mature human PlGF-1 with 6xHis tag; also called HEK (1-137); full length HEK human PlGF-1 (1-137)
T2 sequence: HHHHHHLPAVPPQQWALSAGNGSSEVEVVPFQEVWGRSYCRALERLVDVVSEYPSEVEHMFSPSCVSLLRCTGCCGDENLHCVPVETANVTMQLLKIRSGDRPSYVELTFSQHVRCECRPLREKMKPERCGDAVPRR
Described as above.

Test [10] concerns the target T3, CHO human PlGF-1 fragment (comprising amino acids 17-131; ATCC PTA-8540) (human, UniProt P49763 35-221).
T3 sequence: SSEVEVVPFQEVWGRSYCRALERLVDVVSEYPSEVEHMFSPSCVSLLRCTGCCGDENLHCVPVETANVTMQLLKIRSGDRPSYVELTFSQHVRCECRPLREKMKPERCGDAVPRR
The description is as above.

Test [11] has as its target T4, CHO human PlGF-1 comprising amino acids 1-137 (human PlGF-1-His (1-131), CHO 6305) (human, UniProt P49763 19-221, N-glycans at N21 (completely glycosylated) and N89 (partially glycosylated)).
T4 construct: Mature human PlGF-1 with 6xHis tag (137 amino acids); also called CHO (1-137)
T4 sequence: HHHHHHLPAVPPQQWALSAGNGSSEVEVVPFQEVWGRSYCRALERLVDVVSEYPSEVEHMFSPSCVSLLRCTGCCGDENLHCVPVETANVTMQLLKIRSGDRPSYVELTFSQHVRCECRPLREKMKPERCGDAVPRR
The test is described as above.

The target of test [12] is recombinant human PlGF-1 (comprising amino acids 1-131) expressed in E. coli (R&D Systems) (human) (UniProt P49763). Kind of test: … sandwich, capture MAb826, detection pAb264; antigen 60 pg/mL.
Test [13] has as its target T1, human PlGF-1 fragment (comprising amino …). Put plainly: … sandwich, capture MAb826, detection pAb264; antigen 250 pg/mL.
Test [14] deals with T2, human PlGF-1 comprising amino acids …. The description is as above.
Test [15] addresses T3, CHO human PlGF-1 fragment (comprising …). The description is as above.
The target of test [16] is T4, CHO human PlGF-1 comprising amino acids …. Described as above.
The target in test [17] is T1, human PlGF-1 fragment (comprising amino …). Put plainly: … sandwich, capture MAb255, detection pAb264; antigen 1500 pg/mL.
Test [18] concerns the target T2, human PlGF-1 comprising amino acids …. The test is described as above.
For test [19], the target named is T3, CHO human PlGF-1 fragment (comprising …). Described as above.
In test [20] the target is T4, CHO human PlGF-1 comprising amino acids …. The description is as above.

For “native sFlt-1, isolated from human placental tissue (from UniProt P17948 27-687) (receptor)”, the % Inhibition – broadly, the percentage by which the read-out fell short of the control – in test [1] was 0%; in test [2], 88.3%; in test [3] it was 18.3%; in [4], 82.2%; in test [5] it was 91.3%; in [6], 0%. Also, the PlGF-1 Measured is 1020 pg/mL in test [1]; 120 pg/mL in test [2]; 707 pg/mL in test [3]; 154 pg/mL in test [4]; 68.2 pg/mL in test [5]; 865 pg/mL in test [6].

B1: monoclonal antibody 2-826-335 (produced by murine hybridoma cell line 2-826-335, ATCC PTA-8539) (antibody, mouse IgG1, V domains shown)
VH: QVQLKQSGPGLVQPSQSLSITCTVSGFSLTTYGIHWVRQSPGKGLEWLGVMWSGGDTDYDAAFISRLSISKDNSKSQVFFKMNSLQANDTGIYYCARYRFYGMDYWGQGTSVTVSS
VL: AIQMTQSSSSFSVSLGDRVTITCKASEDIYNRFAWYQQKPGNAPRLLISGAASLEAGVPSRFSGSGSGQDYTLSITSLQTEDVATYYCQQYWSTPWTFGGGTKLEIKR
notes: also called MAb826
In the case of B1, the RLU in test [7] worked out at 231000 RLU; in test [8], 624000 RLU; in test [9], 760000 RLU; in [10], 456000 RLU; in [11] it was 329000 RLU; in [12], 65500 RLU. Moreover, the RLU amounted to 126000 RLU in test [13], 173000 RLU in test [14], 93600 RLU in [15] and 66100 RLU in [16].

B2: monoclonal antibody 1-255-713 (produced by murine hybridoma cell line 1-255-713, ATCC PTA-8536) (antibody, mouse IgG2a, V domains shown)
VH: QVHLQQSGAELMKPGASVKISCKATGYTFSSYWIEWVKQRPGHGLEWIGEILPGSVSNNFNEKFKDKATLTADPSSNTAYIQVSSLTSEDSAVYYCARSTGFYYGGNYFDHWGQGTTLAVSS
VL: DVVMTQTPLSLPVSPGDQASISCRSSQSLVHSNGHTYLHWYLQKPGQSPKLLIYKVSNRFSGVPDRVSGSGSGTDFTLKISRVEAEDLGVYFCSQSTHVPPTFGGGTKLEIKR
notes: also called MAb255
As to B2, the RLU in test [17] was found to be 1.62e+06 RLU; in test [18], 2.14e+06 RLU; in test [19] it was 1.25e+06 RLU; in test [20] it was 1.05e+06 RLU.
